B1: FIXa-D104N/K106S/I251S/R318Y/R338E/E410N (protein)
chain 1: not shown
chain 2: not shown
B2: FIXa-D104N/K106S/K247N/N249S/R318Y/R338E/R403E/E410N (protein)
chain 1: not shown
chain 2: not shown
B3: FIXa-K247N/N249S/R318Y/R338E/R403E/E410N (protein)
chain 1: not shown
chain 2: not shown
B4: FIXa-K247N/N249S/R318Y/R338E/E410N (protein)
chain 1: not shown
chain 2: not shown
B5: FIXa-D104N/K106S/Y155F/K228N/K247N/N249S (protein)
chain 1: not shown
chain 2: not shown
B6: FIXa-R318Y/R338E/E410S (protein)
chain 1: not shown
chain 2: not shown
B7: FIXa K247N/N249S/R318Y/T343R/R403E (protein)
chain 1: not shown
chain 2: not shown
B8: FIXa K247N/N249S/R318Y/R338E/T343R/E410N (protein)
chain 1: not shown
chain 2: not shown
B9: FIXa Y155F/K247N/N249S/R318Y/T343R/R403E (protein)
chain 1: not shown
chain 2: not shown
B10: FIXa Y155F/K247N/N249S/R338E/E410N (protein)
chain 1: not shown
chain 2: not shown
B11: FIXa Y155F/K247N/N249S/R318Y/T343R/R403E/E410N (protein)
chain 1: not shown
chain 2: not shown
B12: FIXa K247N/N249S/R318Y/T343R/R403E/E410N (protein)
chain 1: not shown
chain 2: not shown
B13: FIXa Y155F/K247N/N249S/R318Y/T343R/E410N (protein)
chain 1: not shown
chain 2: not shown

What follows are proteins tested against Factor X (FX), P00742.
Factor X (FX), P00742, sequence (P00742 whole entry, looked up): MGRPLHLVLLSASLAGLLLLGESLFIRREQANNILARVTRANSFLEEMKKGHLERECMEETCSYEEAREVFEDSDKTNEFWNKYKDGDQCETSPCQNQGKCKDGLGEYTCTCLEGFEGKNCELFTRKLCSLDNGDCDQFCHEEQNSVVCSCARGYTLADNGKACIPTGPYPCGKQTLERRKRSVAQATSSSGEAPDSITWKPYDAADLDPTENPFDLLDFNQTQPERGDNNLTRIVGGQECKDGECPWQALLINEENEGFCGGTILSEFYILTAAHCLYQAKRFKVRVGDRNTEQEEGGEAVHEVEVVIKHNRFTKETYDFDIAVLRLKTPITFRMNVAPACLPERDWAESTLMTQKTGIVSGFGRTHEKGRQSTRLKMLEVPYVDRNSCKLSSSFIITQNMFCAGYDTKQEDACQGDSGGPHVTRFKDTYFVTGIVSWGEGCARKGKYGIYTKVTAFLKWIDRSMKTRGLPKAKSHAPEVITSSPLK
B1 was tested, and the “% of WT kcat/KM (against Catalyst Biosciences WT FIXa)” value was 291% and the kcat/KM for activation of FX by FIXa in the Xase complex (FVIIIa, PC/PS vesicles, Ca2+), fluorogenic Spectrafluor FXa read-out was 1.3e+08 M⁻¹ s⁻¹. For B2, the “% of WT kcat/KM (against Catalyst Biosciences WT FIXa)” value was 192% and the kcat/KM for activation of FX by FIXa in the Xase complex (FVIIIa, PC/PS vesicles, Ca2+), fluorogenic Spectrafluor FXa read-out was 8.8e+07 M⁻¹ s⁻¹. For B3, the “% of WT kcat/KM (against Catalyst Biosciences WT FIXa)” value was 331% and the kcat/KM for activation of FX by FIXa in the Xase complex (FVIIIa, PC/PS vesicles, Ca2+), fluorogenic Spectrafluor FXa read-out was 1.5e+08 M⁻¹ s⁻¹. In the case of B4, the “% of WT kcat/KM (against Catalyst Biosciences WT FIXa)” value is reported as 501% and the kcat/KM for activation of FX by FIXa in the Xase complex (FVIIIa, PC/PS vesicles, Ca2+), fluorogenic Spectrafluor FXa read-out is reported as 2.3e+08 M⁻¹ s⁻¹. For B5, the “% of WT kcat/KM (against Catalyst Biosciences WT FIXa)” value was 137% and the kcat/KM for activation of FX by FIXa in the Xase complex (FVIIIa, PC/PS vesicles, Ca2+), fluorogenic Spectrafluor FXa read-out was 6.3e+07 M⁻¹ s⁻¹. With B6 the “% of WT kcat/KM (against Catalyst Biosciences WT FIXa)” value was 708% and the kcat/KM for activation of FX by FIXa in the Xase complex (FVIIIa, PC/PS vesicles, Ca2+), fluorogenic Spectrafluor FXa read-out was 3.3e+08 M⁻¹ s⁻¹.

Each protein was assayed against Factor X, P00742.
Factor X, P00742, sequence (P00742 whole entry, looked up): as above
B7 was tested, and the “% of WT kcat/KM” value was 84% and the kcat/KM was 3.9e+07 M⁻¹ s⁻¹. With B8 the “% of WT kcat/KM” value was 687% and the kcat/KM was 3.2e+08 M⁻¹ s⁻¹. With B9 the “% of WT kcat/KM” value was 276% and the kcat/KM was 1.3e+08 M⁻¹ s⁻¹. In the case of B10, the “% of WT kcat/KM” value is reported as 1009% and the kcat/KM is reported as 4.7e+08 M⁻¹ s⁻¹. In the case of B11, the “% of WT kcat/KM” value is reported as 350% and the kcat/KM is reported as 1.6e+08 M⁻¹ s⁻¹. With B12 the “% of WT kcat/KM” value was 279% and the kcat/KM was 1.3e+08 M⁻¹ s⁻¹. For B13, the “% of WT kcat/KM” value was 668% and the kcat/KM was 3.1e+08 M⁻¹ s⁻¹.

— patent publication US11491212
